Data published in patent publication US6699662.

Target: T1, SarA (staphylococcal accessory regulator A), strain DB (Staphylococcus aureus) (UniProt Q2G2U9)
T1 sequence: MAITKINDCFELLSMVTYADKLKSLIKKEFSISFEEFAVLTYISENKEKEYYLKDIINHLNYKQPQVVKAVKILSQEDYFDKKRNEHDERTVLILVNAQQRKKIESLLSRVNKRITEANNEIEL
Experiment: EMSA
Details: same buffer; 1 dimer per DNA; dG dissociation 12.1 kcal/mol

AC oligo (45 bp, footprint region of Chien and Cheung)
Kd: 1 nM
